Reference: US20100015650

Tested on: BRB1 tyrosine kinase substrate peptide
Sequence (chain, as listed by the source): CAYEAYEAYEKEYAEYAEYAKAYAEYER

BLK, sequence (chain, as listed by the source): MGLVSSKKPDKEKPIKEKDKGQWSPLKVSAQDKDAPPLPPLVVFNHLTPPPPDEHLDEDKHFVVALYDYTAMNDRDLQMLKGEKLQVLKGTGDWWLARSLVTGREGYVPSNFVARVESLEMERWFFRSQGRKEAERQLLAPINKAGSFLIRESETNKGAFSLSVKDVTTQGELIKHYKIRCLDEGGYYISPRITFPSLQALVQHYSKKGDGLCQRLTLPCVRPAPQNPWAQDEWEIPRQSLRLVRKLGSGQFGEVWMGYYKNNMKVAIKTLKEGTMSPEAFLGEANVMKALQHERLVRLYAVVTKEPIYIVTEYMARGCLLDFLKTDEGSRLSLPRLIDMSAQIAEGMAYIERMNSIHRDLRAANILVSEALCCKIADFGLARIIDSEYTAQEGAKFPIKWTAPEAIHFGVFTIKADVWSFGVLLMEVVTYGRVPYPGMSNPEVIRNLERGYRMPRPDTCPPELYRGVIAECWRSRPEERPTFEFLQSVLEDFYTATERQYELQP
TRKC (NTRK3), sequence (chain, as listed by the source): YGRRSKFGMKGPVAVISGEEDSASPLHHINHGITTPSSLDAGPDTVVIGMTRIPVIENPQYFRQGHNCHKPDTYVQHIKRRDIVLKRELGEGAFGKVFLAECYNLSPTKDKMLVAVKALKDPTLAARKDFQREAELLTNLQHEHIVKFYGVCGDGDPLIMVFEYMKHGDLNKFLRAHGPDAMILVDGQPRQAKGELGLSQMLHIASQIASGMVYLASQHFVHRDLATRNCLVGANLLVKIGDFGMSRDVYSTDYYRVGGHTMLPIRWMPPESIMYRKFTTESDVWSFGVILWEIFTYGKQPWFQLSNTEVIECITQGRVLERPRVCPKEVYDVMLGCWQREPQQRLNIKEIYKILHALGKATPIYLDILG
EphA7, sequence (chain, as listed by the source): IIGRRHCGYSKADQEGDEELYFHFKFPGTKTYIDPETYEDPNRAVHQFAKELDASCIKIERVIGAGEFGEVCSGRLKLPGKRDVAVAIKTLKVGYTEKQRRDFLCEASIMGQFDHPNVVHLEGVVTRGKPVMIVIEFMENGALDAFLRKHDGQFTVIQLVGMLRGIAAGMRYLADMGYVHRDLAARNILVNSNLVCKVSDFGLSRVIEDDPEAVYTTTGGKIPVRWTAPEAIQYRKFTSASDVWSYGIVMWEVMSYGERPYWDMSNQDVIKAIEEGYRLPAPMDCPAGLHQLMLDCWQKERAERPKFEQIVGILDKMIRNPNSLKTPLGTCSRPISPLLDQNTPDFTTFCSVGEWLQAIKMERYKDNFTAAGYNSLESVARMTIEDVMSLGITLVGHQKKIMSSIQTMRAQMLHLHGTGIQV
TRKA (NTRK1), sequence (chain, as listed by the source): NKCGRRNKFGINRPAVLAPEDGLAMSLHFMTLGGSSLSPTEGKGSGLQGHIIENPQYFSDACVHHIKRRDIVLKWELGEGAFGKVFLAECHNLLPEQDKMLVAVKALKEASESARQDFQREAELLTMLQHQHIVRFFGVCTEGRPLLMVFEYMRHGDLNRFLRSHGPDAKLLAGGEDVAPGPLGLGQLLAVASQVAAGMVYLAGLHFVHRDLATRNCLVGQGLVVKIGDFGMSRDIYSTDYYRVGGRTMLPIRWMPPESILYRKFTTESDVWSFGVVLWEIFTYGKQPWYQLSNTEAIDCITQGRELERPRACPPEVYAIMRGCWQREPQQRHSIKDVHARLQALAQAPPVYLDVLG
TRKB (NTRK2), sequence (chain, as listed by the source): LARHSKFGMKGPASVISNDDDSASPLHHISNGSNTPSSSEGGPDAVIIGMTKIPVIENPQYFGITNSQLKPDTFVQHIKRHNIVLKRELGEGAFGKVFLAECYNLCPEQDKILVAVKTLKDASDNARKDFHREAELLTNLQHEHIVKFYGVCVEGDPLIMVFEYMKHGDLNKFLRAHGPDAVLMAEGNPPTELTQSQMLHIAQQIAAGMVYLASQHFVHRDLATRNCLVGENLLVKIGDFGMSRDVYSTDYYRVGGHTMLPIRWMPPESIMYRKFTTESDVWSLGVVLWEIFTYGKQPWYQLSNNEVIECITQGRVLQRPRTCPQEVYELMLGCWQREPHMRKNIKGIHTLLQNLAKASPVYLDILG
YES, sequence (chain, as listed by the source): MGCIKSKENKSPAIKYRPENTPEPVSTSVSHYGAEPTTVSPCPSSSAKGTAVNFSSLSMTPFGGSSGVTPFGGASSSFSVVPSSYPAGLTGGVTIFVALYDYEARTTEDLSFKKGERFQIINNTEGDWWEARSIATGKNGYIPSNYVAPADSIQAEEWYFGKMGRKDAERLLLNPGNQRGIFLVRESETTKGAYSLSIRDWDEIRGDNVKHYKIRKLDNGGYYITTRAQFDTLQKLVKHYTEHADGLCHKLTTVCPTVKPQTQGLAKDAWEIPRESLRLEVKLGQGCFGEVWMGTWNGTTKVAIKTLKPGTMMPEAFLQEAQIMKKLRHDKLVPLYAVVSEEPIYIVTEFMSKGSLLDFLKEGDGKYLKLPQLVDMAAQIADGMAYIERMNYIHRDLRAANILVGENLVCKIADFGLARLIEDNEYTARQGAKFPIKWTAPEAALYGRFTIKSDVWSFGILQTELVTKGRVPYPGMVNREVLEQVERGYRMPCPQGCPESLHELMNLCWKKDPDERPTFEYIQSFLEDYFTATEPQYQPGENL

Substance | Signal to Noise ratio with BRB1 Peptide (TR-FRET kinase assay; kinase 0.5 nM) | further results
TRKB (NTRK2) | 28 | 
TRKA (NTRK1) | 23.2 | 
BLK | 31 | 
TRKC (NTRK3) | 6.4 | 
EphA7 | 17.2 | 
LYNa | 32.5 | 
FGR |  | Signal to Noise ratio with BRB1 Peptide (TR-FRET kinase assay; kinase 0.1 nM): 29.3
YES |  | Signal to Noise ratio with BRB1 Peptide (TR-FRET kinase assay; kinase 0.25 nM): 28
